From patent US20250043016A1 (SANYOU BIOPHARMACEUTICALS, published 2025)

Target: T1, recombinant human TNFR2 (SinoBiological, 10417-H03H) (human, UniProt P20333 23-257)
T1 construct: Bought protein; also called human recombinant TNFR2
T1 sequence (looked up): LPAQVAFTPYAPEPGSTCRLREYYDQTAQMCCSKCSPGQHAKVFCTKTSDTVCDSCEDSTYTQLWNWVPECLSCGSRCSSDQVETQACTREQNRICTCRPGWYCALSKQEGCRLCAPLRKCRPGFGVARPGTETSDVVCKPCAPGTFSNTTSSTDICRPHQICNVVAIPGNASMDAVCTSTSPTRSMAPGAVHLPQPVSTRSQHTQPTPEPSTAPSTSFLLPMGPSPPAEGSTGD
Assay: ELISA on plate-coated recombinant human TNFR2, detection with anti-camelid-VHH-HRP; the axis is the lysate concentration
Description: The prepared positive clone lysate was subjected to ELISA affinity detection. The specific method was as follows: a 96-well ELISA plate was coated with 2 μg/mL recombinant human TNFR2 and incubated overnight at 4° C.; the next day, the well plate was washed 3 times with PBST, 5% skim milk was added, and blocking was performed for 2 h; subsequently, the well plate was washed 3 times with PBST, gradiently diluted positive clone lysates were added, and incubation was performed for 1 h; subsequently, the well plate was washed 3 times with PBST, Rabbit Anti-Camelid-VHH-HRP (Genescript, A01861-200) diluted at 1:8000 was added, and incubation was performed for 1 h; subsequently, the well plate was washed 6 times with PBST, TMB (SurModics, TMBS-1000-01) was added for color development in the dark for 5-10 min, and 2 M HCl was added to stop the reaction according to the color development results; the values at OD450 were read by a microplate reader (Molecular Devices, SpecterMax 190) and fitted by four parameters.

B1: NB92-161 VHH (positive clone lysate from E. coli) (VHH)
VHH: EVQLVESGGGLVQPGGSLRLSCAASGSIFSINDMGWYRQAPGKQRELVAAIGRGGGSTNYADSVKGRFTISRDNAKNTVYLQMNSLKPEDTAVYYCHAEISQLTWAFRDYWGQGTQVTVSS
notes: Tested as crude bacterial lysate from the phage display vector
  EC50 (read off the curve): ~0.2 µg/mL
